Reference: the nanobody polyreactivity screen of Harvey et al. (2022)

Assay: yeast display, Sf9 membrane polyspecificity reagent, FACS + sequencing; frameworks hold sequencing errors
Procedure, shortened: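 Genes from sorted yeast were amplified by colony PCR, read by MiSeq 2 × 250 sequencing and filtered on CDR length. These cells carried a synthetic nanobody library in Saccharomyces cerevisiae BJ5465 and were sorted by FACS into low and high (top ~1%) gates on anti-HA and streptavidin fluorescence. Polyreactivity is labelled according to the gate of origin.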

Sequence	polyreactivity (PSR sort gate)
QVQLVESGGGLVQAGGSLRLSCAASGFTFSAYTMGWYRQAPGKERELVADISSRGGSTYYADSVKGRFTISRDNAKNTVYLQMNSLKPEDTAVYYCAAVWYWTQDYDYWGQGTQVTVSS	low polyreactivity
QVQLVESGGGVVQAGGSLRLSCAASGITFQGDDMGWYRQAPGKEREFVAAITWNGGSTYYADSVKGRFTISRDHAKNTVFLQMNSLKPEDTAVYYCAADWSITYGDGGYWGQGTQVTVSS	low polyreactivity
QVQLVESGGGLVQAGGSLRLSCAASGNIIDANAMGWYRQAPGKERELVAAITSSGGSTYYADSVKGRFTISRDNAKNTVYLQMNSLKPEDTAVYYCAKSHAIYYWWDESWGQGTQVTVSS	low polyreactivity
QVQLVESGGGLVQAGGRLRVSCAASGSTFAWYAMGWYRQAPGKERELVAAISSGGRTYYADSVKGRFTISRDNAKNTVDLQMNSLKREDTAVFSCNADDWAYGMDYWGQGSQVTVSS	low polyreactivity
QVQLVESGGGLVQEGGSLRLSCAASGRIIEYNTMGLNRPATGKERELVAAITGGTGSTYYADSVKGRFTISRDNAKNTVYLQMNSLIPVDTSVYYCNADGMILYDYWGQGTQVTVSS	low polyreactivity
QVQLVESGGGLVQAGGSLRLICAASGSIFINNGMGWYRQAPGKERELVAAINGGDGSTYYADSVKGRFTISRDNAKNTVYLQMNSLKPEDTAVYYCAADQVTYSVEYDYWGQGTQVTVSS	low polyreactivity
QVPLVESGGGLVQAGGSLRLSCAASGRIFLRYDIGWYRKAPGKERELVAAIPRSGGSTYYADSVKGRFTISRDNAKNTVYLQMNSLKPEDTAVYYCAARRWGRVYTTYTGGYWGQGTQVTVSS	high polyreactivity
QVQLVESGGGLVQAGGSLRLSCAASGSIFDDYAMGCYIHAPGKERELVAAITWNGGSTYADSVKGRFTISRDNAKNTVYLQMNSLKPEDTAVYYCAADYFVYWYYGYGYWGQGTQVTVSS	low polyreactivity
QVQLVESGGGLVQAGGSLRLSCAASGLIFYVYAMGWYRQAPGKERELVAAIRGSGARTYYADSVKGRFTISRDNAKNTVYLQMNSLKPEDTAVYYCNARQRYRPSYDYWGQGTQVTVSS	high polyreactivity
QVQLVESGGGIVQAGGRLRLSCAASGFPSTLMLWDGIDRRLGKKGSWLPIISYNGGSTYYADSVKGRFTISRDNANNTVYLQMNSLKPVDTAVYYCYTAVGEYESDYWGQGTQVTVSS	low polyreactivity
QVQLVESGGGLVQAGGSLRLSCAASGRTFFKIAMGWYRQAPGKERELVASISSRSGTTYYADSVKGRFTISRDNAKNTVYLQMNSLKPEDTAVYYCAASRNRYSYGYWGQGTQVTVSS	high polyreactivity
QVQLGESGGGLVQAGGSLRLSCAASGGTFARNTMGWYRQAPGKERELVAAITRGGSSTYYADSVKGRFTISRDYAKNTVYLQMNSLKPEDTAVYYCNKSLRWLYPYYGTTGRYDYWGQGTQVTVSS	high polyreactivity
QVQLVESGGCLVQAGGSLRLSCAASGFTFSYYAMGWYRQAPGKERELVAAISSSSGTTYYADSVKRRFTISRDNANNTVYLQMNSLKPEDTAVYYCVVIARDGYDYWGQGTQVTVSS	high polyreactivity
QVQLVESGGGLVQAGGSLRLSSASSGSIFESNALGWYRQAPGKEREFVAAIDQNDGSTNYADSVKGRFTISRDNAKNTVYLQMYSLNPEDTAVYYCAASPGTASYDYWGQGTQVTVSS	low polyreactivity
QVQLVESGGGLVQAGGSLRLSCAASGIIFKYYAMGWYRQAPGKEREFVATISRRGGSTYYAYSVKGRFTISRDNAKNTVYLQMNSLKPEDTAVYYCATEYSPGREYKFNFWGQGTQVTVSS	high polyreactivity
QVQLVESGGGLVQAGGSLRLSCAASGLTFNPNAMGWYRQAPGKERDLVADITYRGGSTYYADSEKGRFTISRDNAKNTDYLQMYSLKPEDTAVYYCAAQYIGWHLYWYDYWGQGTQVTVSS	low polyreactivity
QVQLVESGGGLVLAGGSLRLSCAASGRTFGIYAMGWYRQAPGKEREIVAAISWSGTSTHYADSVKGRFTISRDNAKNTVYLQMNSLKPEDTAVYYCAAAKTGRGSGTTGFGYWGQGTQVTVSS	high polyreactivity
QVQLVESGGGLVQAGGSLRLSCAASGFTFAVYAMGWYRQAPGKERELVAAISRSGTRTYYADSVKGRFTISRDNAKNTVYLQMNSMKPEDTAVYYCAADKYRHGYDYWGQGTQVTVSS	low polyreactivity
QVQLVESGGGLVQAGGSLRLSCAASGFTFSRYTMGWYRQAPGKERELDAAINRRGGSTYYADSVKGRFTISRDNAKNTVYLQMNSLKPEDTAVYYCAATYTVRSGNGIANDYWGQGTQVTVSS	high polyreactivity
QVQLVESGGGLVQAGGSLRLSCAASGIIFTQYAMGLYRQAPGKERELVAAISGSGGRTYYADSVKGRFTISRDIAKNTVYLQMNSLKPEDTAVYYCAARYARYGNDYWGQGTQVTVSS	high polyreactivity
QVQLVESGGGLVQAGGSLRLSCAASGRIFRPNAMGWYRQAPGKERELVAAITSNGGRTYYADSVKGRFTISRDNAKNTVYLQMNSLKPEDTAVYYCNAAPFRSGYGYWGQGTQVTVSS	high polyreactivity
QVQLVESGGGLVQAGGSLRLSCAASGSIFTANAMGWYRQAPGKERELVAAISRSGGRTYYADSLKGRFTISRDNEKNTVYLQWKSLKPEDTAVYYCNVGRFNTSGYDYWGLGTQVTVSS	high polyreactivity

Sequence	polyreactivity (PSR sort gate)
QVQLVESGGGLVQAGGSLRLSCAASGRIFTWYAMGWYRQAPGKERELVAAISWSGGRTYYADSVKGRFTISRDNAKNTVYLQMNSLKPEDTAVYYCNAVPSVRWRYDYWGQGTQVTVSS	high polyreactivity
QVHLVESGGGLVQAGGSLRLSCAASGRTFDVYAMGWYRQAPGKERELVATITDSGGNTYYADSVKGRFTISRDNAKNTVYLQMNSLKPEDTAVYYCAADRIYPYYRWSGAHRSDVDYWGQGTQVTVSS	low polyreactivity
QFQLVESWGGLVQAGGSLRLSCAASGYIFGYVMGWYRQAPGKERELVAAITYSSGNTYYADSVKGRFTISRDNAKNTVYLQMNSLKPEDTAVYYCAKQAYYKGRLAYGYWGQATQVTVSS	high polyreactivity
QVQLVESGGGLVQAGGSLRLSCAASGRIFAVNTMGWYRQAPGKEREFVAAISDSGGGTYYADSVKGRFTISRDNAKKTVYLQMNSLKPEDTAVYYCNAKGQRSPYSKLEYWGQGTQVTVSS	high polyreactivity
QVQLVESGGGLVQAGGSLRLSCAASGSTFGSNAMGWYRQAPGKEREFVAAITWSGGSTYYADSVKGRFTISRDNAKNTVYLQMNSLKPEDTAVYYCAAESDSYFREYDYWGQGTQVTVSS	low polyreactivity
QVQLVESGGGLVQAGGSLRLSCAASGFTFAYYTMGWYRQAPGKERELVAAISWSGSSTYYADSVKGRFTISRDNAKNTVYLQMNSLKPEDTAVYYCAAKGWYVQHFKRGLYNYWGQGTQVTVSS	high polyreactivity
QVQLVESGGGLVQAGGSLRLSCAASGITIKRYAMVWYSQAHGKEREFVATISQSGTSTYYADSVKGRFTISRDNAKNTVYLQMNSLKPEDTAVYYCAADYIGYWYGYYSWGQGTKVTVSS	low polyreactivity
QLQLVESGGGLVQAGGSLRLSCAASGFTFGVYAKGWYRQAPGKEREFVAAISWRGGSTYYADSVKGRFTISRDNAKITVYLQMNSLKPEDTAVYYCAADVLERGYGHYNYWGQGTQVTVSS	high polyreactivity
QVQLVESGGGLLQAGGSLRLSCSASGFIFHYYARGLYRQAPGKDRELVAAIRSGGSTYYADSVKGRFTISRDNAKNTVYLQMNSLKPEHTEVYFCNGRFYSRGYRYYYWGQGTQVTVSS	high polyreactivity
QVHHVESGGVLVQAGRILRVSCAASGSTFPRNAMGWYRHAPGKERELDAAITSRGGRTYYADSVKGRFTISRDNAKNTVYLQMISLKPEDTAVYYCARVGGIGSGRTGYGYWGQGSQVTVSS	high polyreactivity
QVQLVESGGGLFQAGGSLRLSCAASGSIFDVNVMGWYRQAPGKERELVASINISGASTYYADSVTGRFTISRDNAKNTVYLQMNSLKPEDTAVYYCAVTYGVPSFRYGYWGQVTQVTVSS	low polyreactivity
QVQLVESGGCLVQAGGSLRLSCAASGRTFRSNAMGWYRQAPGKERELVAAITIGGSTTYADSVKGRFTISRDNAKNTVYLQMISLKREDSAVYYCKARDYYPYDYWGKGTQVTVSS	high polyreactivity
QVQLVESGGGLVQAGGSLRLSCAASGGIFDFYAMGWYRQAPGKERELVAAITRSGSSTFYADSVKGRFTISRDNAKNTVYLQMNSLKPEDTAVYYCATRPTSDFVKRRVYEWLDYWGQGTQVTVSS	low polyreactivity
QVQLVESGGGLVQAGGSLRLSCAASGSISSVNVMGWYRQAPGKERELVAAISSGTSTHYADSVKGRFTISRDNAKNTVYLQMNSLKPVDTAVYYCAAYFYRQYLYFLYEYDYWGQGTQVTVSS	low polyreactivity
QVQLQESGGGLVQAGGSLRLSCAASGTISTDSYMGWYRQAPGKERKFVASIGYGGITYYADSVKGRSTISRDSAKNTVYLQMNSLKPEDTAVYYCAVNSYYPDHYWYWGRGTQVTVSS	high polyreactivity
QVQLVESGGGLVQAGGSLRLSCAASGSTSQSNAMGRYRQAPGKERELVAAISWSGTSTYYADSVKGRFTISRDNAKNTVYLQMNSLKPEDTAVYYCAADYIFDYDYWGQGTQVTVSS	low polyreactivity
QVQLVESGGGLVQAGGSLRLSCAASGRTFLRYTMGWYRQAAGKERELVAVITNGGTRTYYADSVKGRFTISRDNAKNTVYLQMNSLKPEYTAVYYCAARVRYTANYDYWGQGTQVTVSS	high polyreactivity
QVQLVESGGGLVQAGGSLRLSCAASGITFYRYTMGWYRQAPGKERELVAAIRSAGSTYYADSVKGRFTISRDNAKNTVYLQMNSLKPEDTAVYYCAATYYRYNVPYYGGNGGDYWGQGTQVTVSS	high polyreactivity
QVQLVESGGGLVQAGGSLRLSCAASGSIFITYAMGWYRQAPGKERELVAAIRDSGDRTYYADSVKGRFTISRDNAKNTVYLQMNSLKPEDTAVYYCTARCQEPLKYDYSGQGTQVTVSS	low polyreactivity
QVQLVESGGGLVQAGGSLRLSCAASGSTVGLYTMGSYRHAPGKEMELFAAISWSDGSTYYEDSVKGRFTISRDNAKNTVYLQMISLKPEDTAVYYCAAEFLYQQSSWEFDYWGQGTQVTVSS	low polyreactivity
QVQLVDSGGGLVQAGGSLRLSCAASGSPFTTYAMGWYRQAPGTERELVAAISTNGGRTFYSDSVKGRFTISRDNAKNSVYLQMNSLKPEDTALYYCAAEYDLYAPGYYYWGEGTQVTVSS	low polyreactivity
